Test [1] has as its target T1, recombinant human Vascular Adhesion Protein-1 (rhVAP-1), purified from CHO cells (human, UniProt Q16853 1-763, limits assumed).
T1 construct: also called recombinant human VAP-1
T1 sequence (looked up): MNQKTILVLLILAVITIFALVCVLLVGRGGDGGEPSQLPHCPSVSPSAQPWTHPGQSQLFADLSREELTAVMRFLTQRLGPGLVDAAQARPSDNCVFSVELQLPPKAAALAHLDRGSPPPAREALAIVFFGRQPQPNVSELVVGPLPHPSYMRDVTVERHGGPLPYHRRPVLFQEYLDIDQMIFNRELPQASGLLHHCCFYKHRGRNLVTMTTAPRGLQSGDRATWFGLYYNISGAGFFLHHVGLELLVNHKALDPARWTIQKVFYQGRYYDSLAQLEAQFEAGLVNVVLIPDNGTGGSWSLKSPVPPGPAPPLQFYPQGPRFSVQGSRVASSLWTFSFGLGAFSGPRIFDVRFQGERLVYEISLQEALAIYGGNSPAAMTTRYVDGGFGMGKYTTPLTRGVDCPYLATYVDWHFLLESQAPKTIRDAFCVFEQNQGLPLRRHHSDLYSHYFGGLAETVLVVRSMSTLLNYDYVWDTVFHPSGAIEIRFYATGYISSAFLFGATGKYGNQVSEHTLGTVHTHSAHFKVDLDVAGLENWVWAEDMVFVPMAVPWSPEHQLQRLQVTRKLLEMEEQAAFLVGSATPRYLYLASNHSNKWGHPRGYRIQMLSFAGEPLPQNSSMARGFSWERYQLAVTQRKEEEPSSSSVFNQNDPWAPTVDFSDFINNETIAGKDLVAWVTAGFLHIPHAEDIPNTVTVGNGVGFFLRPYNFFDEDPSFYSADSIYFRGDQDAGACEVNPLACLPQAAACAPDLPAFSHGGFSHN
The test can be described thus: time-resolved immunofluorometric assay, plate coated with rhVAP-1, europium-conjugated anti-human antibody detection. The method, then: A time-resolved immunofluorometric assay was used quantitatively to examine the binding of 5F12, 4B3, 3F10, 8A4 and 8C10 to rhVAP-1. A microtiter plate was coated with rhVAP-1 and then blocked with bovine serum albumin solution. An amount of antibody between 2 and 4320 ng/ml was subsequently added to bind to rhVAP-1 and the bound antibody detected by a europium-conjugated mouse anti-human antibody (Perkin Elmer Inc.). The label was detected by measuring the time-resolved fluorescence (VICTOR³™ multilabel counter, PerkinElmer Inc.) at 615 nm. The fluorescence counts directly correlate with how much antibody was bound to its target. The sample data were then analyzed in comparison to the standard curve of a reference.

Test [2] deals with T1, recombinant human Vascular Adhesion …. Nature of the test: Biacore SPR, BTT-1023 captured on biotinylated protein G' on a streptavidin chip, rhVAP-1 as analyte. As for the experimental part: Constant amounts of rhVAP-1 were used as an analyte for saturating concentration of mAbs (ligands). Experiments were performed using BIALITE® equipment (BIACORE® AB) and the data analyzed using Biacore software.
Background: SPR reads the build-up and loss of mass on a sensor chip optically.

Test [3] has the same target. Nature of the test: time-resolved immunofluorometric assay, plate coated with rhVAP-1, europium-conjugated anti-human antibody detection. The method, then:
A microtiter plate was coated with rhVAP-1 and then blocked with bovine serum albumin solution. […] The label was detected by measuring the time-resolved fluorescence (VICTOR³™ multilabel counter, PerkinElmer Inc.) at 615 nm. […] The sample data were then analyzed in comparison to the standard curve of a reference.
This is another data set of the same source.

B1: fully human anti-VAP-1 monoclonal antibody 8C10 (hybridoma-derived) (antibody, human IgG1, V domains shown)
VH: QVQLVESGGGVVQPGRSLRLSCAASGFTFFSYAMHWVRQTPGKGLEWVAVIWFDGSNENYVDSVKGRFTISRDNSKNTLYLQMNTLRAEDTAVYYCARDAWSYFDYWGQGTLVTVSS
VL: VIQLTQSPSSLSASVGDRVTITCRASQGISRALAWYQQKPGKGPKLLIYDASSLESGVPSRFSGSGSGTDFTLTISSLQPEDFATYYCQQFNSYPLTFGGGTKVEIK
Turning to B1, in test [1], the dissociation constant Kd was found to be 0.21 nM.

B2: fully human anti-VAP-1 monoclonal antibody 3F10 (hybridoma-derived) (antibody, human IgG1, V domains shown)
VH: QVQLVESGGGVVQPGRSLRLSCAASGFTFSSYAMHWVRQAPGKGLEWVAVLWFDGSNEDYADSVKGRFTISRDNSKNTLYLQMNSLRAEDTAVYYCARDGWGYFDYWGQGTLVTVSS
VL: AIQLTQSPSSLSASVGDRVTITCRASQGISRALAWYQQKPGKAPKLLIYDASNLERGVPSRFSGSGSGTDFTLTISSLQPEDFATYYCQQFNSFPLTFGGGTKVEIK
As for B2, in test [1], the dissociation constant (Kd) was found to be 0.25 nM.

B3: recombinant fully human anti-VAP-1 antibody r8C10 (BTT-1023) (antibody, human IgG4 S228P, kappa, V domains shown)
VH: QVQLVESGGGVVQPGRSLRLSCAASGFTFFSYAMHWVRQTPGKGLEWVAVIWFDGSNENYVDSVKGRFTISRDNSKNTLYLQMNTLRAEDTAVYYCARDAWSYFDYWGQGTLVTVSS
VL: VIQLTQSPSSLSASVGDRVTITCRASQGISRALAWYQQKPGKGPKLLIYDASSLESGVPSRFSGSGSGTDFTLTISSLQPEDFATYYCQQFNSYPLTFGGGTKVEIKR
notes: also called recombinant 8C10
Turning to B3, the Kd in test [2] came out at 0.13 nM; in test [3], 0.38 nM.

B4: fully human anti-VAP-1 monoclonal antibody 8A4 (hybridoma-derived) (antibody, human IgG1, V domains shown)
VH: EVQLVESGGGLVQPGGSLRLSCAASGFIFSNYWMSWVRQAPGKGLEWVANIKQDGSEKYYVDSVRGRFTVSRDNAKNSLYLQMNSLRAEDTAVYYCARDYFGSGTYFFYFDYWGQGTLVTFSS
VL: EIVLTQSPATLSLSPGERATLSCRASQSVSSYLAWYQQKPGQAPRLLIYDASNRATGIPARFSGSGSGTDFTLTISSLEPEDFAVYYCQQRSNWPLTFGGGTKVEIK
In the case of B4, the Kd in test [1] came to 0.28 nM.

B5: fully human anti-VAP-1 monoclonal antibody 5F12 (hybridoma-derived) (antibody, V domains shown)
VH: QVQLVDSGGDVVQPGRSLRLSCAASGFSFSRSGIHWVRQAPGKGLEWVAVIWYDGIYKYYADSVKGRFTISRDNSKNTLYLQMNSLRAEDTAVYYCAREKNWGIDYWGQGTLVTVSS
VL: DIQMTQSPSSLSASVGDRVTITCRASQGISSWLAWYQQKPEKAPKSLIYGASSLQSGVPSRFSGSGSGTDFTLTISSLQPEDFATYYCQQYNSYPRTFGQGTKVEIK
Turning to B5, the dissociation constant (Kd) in test [1] was 0.65 nM.

B6: fully human anti-VAP-1 monoclonal antibody 4B3 (hybridoma-derived) (antibody, human IgG1, V domains shown)
VH: EVQLVQSGGGLVHPGGSLRLSCAGSGFPVSSYGMHWVRQAPGKGLEWVSAIGVGGGTYHVDSVKGRFTISRDNAKNSLYLQMNSLRAGDMAVYYCARDPGFGEVYFDYWGQGTLVTVSS
VL: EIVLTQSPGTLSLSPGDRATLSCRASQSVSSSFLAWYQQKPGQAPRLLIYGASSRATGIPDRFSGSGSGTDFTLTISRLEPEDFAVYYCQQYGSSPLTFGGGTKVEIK
Turning to B6, the Kd in test [1] was 0.31 nM.

The term Kd denotes a measure of binding affinity in units of concentration.
